PMC10709384, “Structure of the complete Saccharomyces cerevisiae Rpd3S-nucleosome complex” (Nature Communications, 2023)

Target: the molecule itself
Experiment: cryo-EM structure; nucleosome (0.9 µM) and Rpd3S (1.8 µM) mixed on ice for 1 h in 50 mM NaCl, 20 mM Na-HEPES pH 7.4, 1 mM TCEP, 4% glycerol; Superose 6 Increase 3.2/300; mild glutaraldehyde cross-linking; single-particle cryo-EM, overall 2.8 Å (Ume1 only at more than 8 Å)

B1: Rco1 (natural protein, S. cerevisiae)
chain: MDTSKKDTTRSPSHSNSSSPSSSSLSSSSSKEKKRPKRLSSQNVNYDLKRRKIITSEGIERSFKNEHSNLAVEDNIPEEEPKELLEKDSKGNIIKLNEPSTISEDSKVSVTGLPLNKGPSEKIKRESLWNYRKNLGGQSNNSEMTLVPSKRFTQVPKNFQDLNRNDLKTFLTENMTEESNIRSTIGWNGDIINRTRDREPESDRDNKKLSNIRTKIILSTNATYDSKSKLFGQNSIKSTSNASEKIFRDKNNSTIDFENEDFCSACNQSGSFLCCDTCPKSFHFLCLDPPIDPNNLPKGDWHCNECKFKIFINNSMATLKKIESNFIKQNNNVKIFAKLLFNIDSHNPKQFQLPNYIKETFPAVKTGSRGQYSDENDKIPLTDRQLFNTSYGQSITKLDSYNPDTHIDSNSGKFLICYKCNQTRLGSWSHPENSRLIMTCDYCQTPWHLDCVPRASFKNLGSKWKCPLHSPTKVYKKIHHCQEDNSVNYKVWKKQRLINKKNQLYYEPLQKIGYQNNGNIQIIPTTSHTDYDFNQDFKITQIDENSIKYDFFDKIYKSKMVQKRKLFQFQESLIDKLVSNGSQNGNSEDNMVKDIASLIYFQVSNNDKSSNNKSASKSNNLRKLWDLKELTNVVVPNELDSIQFNDFSSDEIKHLLYLKKIIESKPKEELLKFLNIENPENQSE
notes: Rco1, S. cerevisiae, amplified from genomic DNA of strain BJ5464; cloned into a 438-A vector with no tag; Two copies (Rco1A in the core module, Rco1B in the auxiliary module) stand in the Rpd3S complex; also called Rco1A; Rco1B
binding result: binds
